Source: the supplement of paper PMC7877785
± gives the uncertainty stated by the source.

Experiment: self-splicing fitness, log relative to wild type (ln ratio); higher = more splicing; Tetrahymena group I intron in knt gene, E. coli kanamycin selection, DiMSum; sequences stand for … in CUCUCU…GGAGGGAAAAGUUAUCAGGCAUGCACCUGGUAGCUAGUCUUUAAACCAAUAGAUUGCAUCGGUUUAAAAGGCAAGACCGUCAAAUUGCGGGAAAGGGGUCAACAGCCGUUCAGUACCAAGUCUCAGGGGAAACUUUGAGAUGGCCUUGCAAAGGGUAUGGUAAUAAGCUGACGGACAUGGUCCUAACCACGCAGCCAAGUCCUAAGUCAACAGAUCUUCUGUUGAUAUGGAUGCAGUUCACAGACUAAAUGUCGGUCGGGGAAGAUGUAUUCUUCUCAUAAGAUAUAGUCGGACCUCUCCUUAAUGGGAGCUAGCGGAUGAAGUGAUGCAACACUGGAGCCGCUGGGAACUAAUUUGUAUGCGAAAGUAUAUUGAUUAGUUUUGGAGUACUCGUGGUCG
Summary of the method: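 A randomised library covering all eight P1ex-region intron nucleotides was built with the intron in the knt kanamycin-resistance gene on pET-22b(+) and held in E. coli BL21(DE3). Cells were grown overnight at 37°C or 30°C on LB agar, with or without 25 μg/mL kanamycin, plus 100 μg/mL carbenicillin, 50 μM IPTG and 0.2% rhamnose, and pooled colonies were amplicon-sequenced on an Illumina HiSeq 2500. DiMSum fitness is the error-weighted combination of wild-type-normalised replicate fold changes, kanamycin versus none.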

Sequence | self-splicing fitness (ln) (30 °C) | self-splicing fitness (ln) (37 °C)
CACCAGCAAUAUUACGACAG | 0.251 ± 0.06 | 0.634 ± 0.083
CACCAGCAAUAUUACGACCU | -3.45 ± 0.17 | -1.35 ± 0.17
CACCAGCAAUAUUACGACGG | -0.253 ± 0.078 | 0.0217 ± 0.091
CACCAGCAAUAUUACGAGCG | -0.154 ± 0.066 | 0.288 ± 0.086
CACCAGCAAUAUUACGAGUG | -4.21 ± 0.18 | -2.76 ± 0.17
CACCAGCAAUAUUACGCCGG | -2.23 ± 0.15 | -0.937 ± 0.14
CACCAGCAAUAUUACGCGAC | -4.31 ± 0.2 | -2.89 ± 0.23
CACCAGCAAUAUUACGCGGG | -3.44 ± 0.16 | -2.4 ± 0.15
CACCAGCAAUAUUACGCGUA | -0.717 ± 0.061 | -0.165 ± 0.066
CACCAGCAAUAUUACGCGUU | -2.15 ± 0.062 | -0.539 ± 0.067
CACCAGCAAUAUUACGGACU | -2.98 ± 0.11 | -2 ± 0.11
CACCAGCAAUAUUACGGAGC | -2.79 ± 0.13 | -1.58 ± 0.13
CACCAGCAAUAUUACGGCUU | -1.91 ± 0.087 | -0.758 ± 0.093
CACCAGCAAUAUUACGGGCG | -1.81 ± 0.053 | -0.295 ± 0.065
CACCAGCAAUAUUACGGUUC | -2.02 ± 0.065 | -1.25 ± 0.085
CACCAGCAAUAUUACGUCAA | -3.64 ± 0.42 | -2.31 ± 0.19
CACCAGCAAUAUUACGUGUC | -3.8 ± 0.09 | -3.28 ± 0.11
CACCAGCAAUAUUACGUUGU | -3.58 ± 0.14 | -2.29 ± 0.14
CACGAGCAAUAUUACGAAGC |  | -1.41 ± 0.26
CACGAGCAAUAUUACGCAUU | -4.65 ± 0.41 | -1.95 ± 0.3
CACGAGCAAUAUUACGCCUC | -3.79 ± 0.26 | -1.37 ± 0.23
CACGAGCAAUAUUACGCCUU | -2.3 ± 0.2 | -2.76 ± 0.4
CACGAGCAAUAUUACGCGAA | -2.93 ± 0.28 | -2.1 ± 0.26
CACGAGCAAUAUUACGGACU | -3.12 ± 0.22 | -1.44 ± 0.25
CACGAGCAAUAUUACGGAUU | -3.86 ± 0.3 | -2.47 ± 0.26

Sequence | self-splicing fitness (ln) (30 °C) | self-splicing fitness (ln) (37 °C)
CACGAGCAAUAUUACGGUGA | -3.17 ± 0.23 | -2.98 ± 0.19
CACGAGCAAUAUUACGUAAG | -3.62 ± 0.14 | -1.82 ± 0.11
CACGAGCAAUAUUACGUAAU | -3.8 ± 0.39 | -2 ± 0.27
CACGAGCAAUAUUACGUGCA | -3.55 ± 0.18 | -3.24 ± 0.23
CACUAGCAAUAUUACGAACG | -0.448 ± 0.071 | 0.647 ± 0.11
CACUAGCAAUAUUACGAAGG | -1.65 ± 0.1 | -0.781 ± 0.15
CACUAGCAAUAUUACGACAC | -2.65 ± 0.22 | -1.69 ± 0.24
CACUAGCAAUAUUACGACAU | -3.209 ± 0.019 | -1.97 ± 0.034
CACUAGCAAUAUUACGACUC | -1.68 ± 0.21 | -2.63 ± 0.36
CACUAGCAAUAUUACGAGAC | -3.77 ± 0.46 | 
CACUAGCAAUAUUACGAUAC | -3.41 ± 0.28 | -2.81 ± 0.38
CACUAGCAAUAUUACGAUAU | -4.57 ± 0.34 | -2.17 ± 0.2
CACUAGCAAUAUUACGAUGA | -1.85 ± 0.16 | -1.01 ± 0.14
CACUAGCAAUAUUACGCAAU | -1.48 ± 0.15 | -3.09 ± 0.35
CACUAGCAAUAUUACGCAUA | -2.75 ± 0.2 | -2.83 ± 0.24
CACUAGCAAUAUUACGCAUC | -4.23 ± 0.43 | -3.53 ± 0.37
CACUAGCAAUAUUACGCCCC | -0.891 ± 0.38 | -0.252 ± 0.47
CACUAGCAAUAUUACGCCGC |  | -2.58 ± 0.5
CACUAGCAAUAUUACGCCUG | -0.103 ± 0.15 | -0.344 ± 0.14
CACUAGCAAUAUUACGCUAG | -3.17 ± 0.26 | -2.41 ± 0.27
CACUAGCAAUAUUACGCUAU | -3.92 ± 0.3 | -2.38 ± 0.23
CACUAGCAAUAUUACGCUGA | -2.58 ± 0.23 | -1.51 ± 0.19
CACUAGCAAUAUUACGCUUC | -3.74 ± 0.3 | -3.2 ± 0.4
CACUAGCAAUAUUACGCUUU | -4.28 ± 0.42 | -1.57 ± 0.2
CACUAGCAAUAUUACGGAGA |  | -2.39 ± 0.22

Sequence | self-splicing fitness (ln) (30 °C) | self-splicing fitness (ln) (37 °C)
CACUAGCAAUAUUACGGAUC | -1.79 ± 0.19 | 
CACUAGCAAUAUUACGGCAG | -0.257 ± 0.049 | 0.189 ± 0.066
CACUAGCAAUAUUACGGGCA | -1.91 ± 0.21 | -1.71 ± 0.21
CACUAGCAAUAUUACGGGCU | -4.24 ± 0.39 | -3.52 ± 0.33
CACUAGCAAUAUUACGGGUU | -2.05 ± 0.076 | -1.28 ± 0.095
CACUAGCAAUAUUACGGUAG | -1.99 ± 0.1 | -0.969 ± 0.094
CACUAGCAAUAUUACGGUGG | -2.3 ± 0.067 | -0.616 ± 0.075
CACUAGCAAUAUUACGGUUG | -1.98 ± 0.087 | -1.38 ± 0.098
CACUAGCAAUAUUACGUAAU | -3.08 ± 0.22 | -2.54 ± 0.2
CACUAGCAAUAUUACGUAUG | -1.82 ± 0.061 | -0.818 ± 0.068
CACUAGCAAUAUUACGUCCC | -2.5 ± 0.34 | -2.38 ± 0.33
CACUAGCAAUAUUACGUGGA | -3.76 ± 0.32 | -2.44 ± 0.14
CACUAGCAAUAUUACGUGGG | -3.99 ± 0.2 | -3.1 ± 0.22
CACUAGCAAUAUUACGUGUA | -2 ± 0.11 | -1.47 ± 0.12
CACUAGCAAUAUUACGUGUU | -4.69 ± 0.23 | -2.88 ± 0.16
CACUAGCAAUAUUACGUUGG | -2.27 ± 0.11 | -2.03 ± 0.16
CAGAAGCAAUAUUACGACAC |  | -2.1 ± 0.29
CAGAAGCAAUAUUACGACUC | -0.803 ± 0.069 | -0.342 ± 0.095
CAGAAGCAAUAUUACGAUGG | -0.534 ± 0.064 | -0.254 ± 0.078
CAGAAGCAAUAUUACGCAGC | -3.43 ± 0.23 | -2.35 ± 0.24
CAGAAGCAAUAUUACGCCGU | -3.06 ± 0.21 | -1.94 ± 0.23
CAGAAGCAAUAUUACGCCUU | -1.78 ± 0.087 | -0.677 ± 0.11
CAGAAGCAAUAUUACGCGCC | -2.83 ± 0.25 | -1.34 ± 0.18
CAGAAGCAAUAUUACGCGGA | -3.15 ± 0.15 | -3.11 ± 0.17
CAGAAGCAAUAUUACGGAUA | -2.48 ± 0.13 | -1.43 ± 0.11

Sequence | self-splicing fitness (ln) (30 °C) | self-splicing fitness (ln) (37 °C)
CAGAAGCAAUAUUACGGCCA | -1.5 ± 0.26 | -1.83 ± 0.21
CAGAAGCAAUAUUACGGCUG | -2.29 ± 0.19 | -2.49 ± 0.23
CAGAAGCAAUAUUACGGGCU | -3.96 ± 0.24 | -1.83 ± 0.16
CAGAAGCAAUAUUACGGUAC | -4.59 ± 0.28 | -1.72 ± 0.21
CAGAAGCAAUAUUACGUAAU | -3.4 ± 0.15 | -2.85 ± 0.21
CAGAAGCAAUAUUACGUCCA | -1.68 ± 0.14 | -1.44 ± 0.21
CAGAAGCAAUAUUACGUCUC | -1.79 ± 0.07 | -0.536 ± 0.084
CAGAAGCAAUAUUACGUGCG | -0.578 ± 0.07 | 0.0457 ± 0.099
CAGAAGCAAUAUUACGUUUU | -3.33 ± 0.14 | -3.58 ± 0.19
CAGCAGCAAUAUUACGAAUA | -2.35 ± 0.13 | -1.9 ± 0.12
CAGCAGCAAUAUUACGAAUG | -1.69 ± 0.061 | 0.012 ± 0.083
CAGCAGCAAUAUUACGAGAA |  | -3.16 ± 0.37
CAGCAGCAAUAUUACGAGGG | -3.15 ± 0.097 | -1.12 ± 0.093
CAGCAGCAAUAUUACGAUUA | -1.77 ± 0.1 | -1 ± 0.11
CAGCAGCAAUAUUACGCCAC | -4.15 ± 0.26 | -3.31 ± 0.29
CAGCAGCAAUAUUACGCCCG | 0.0522 ± 0.12 | 0.33 ± 0.12
CAGCAGCAAUAUUACGCGAC | -2.71 ± 0.39 | -0.925 ± 0.25
CAGCAGCAAUAUUACGGAGU | -3.15 ± 0.12 | -2.49 ± 0.15
CAGCAGCAAUAUUACGGGCC | -3.41 ± 0.3 | -2.78 ± 0.24
CAGGAGCAAUAUUACGACCG | 0.66 ± 0.2 | 0.00703 ± 0.17
CAGGAGCAAUAUUACGACUC | -2.74 ± 0.11 | -2.14 ± 0.15
CAGGAGCAAUAUUACGAGCC | -2.71 ± 0.29 | -2.44 ± 0.49
